According to patent publication US20220119513A1 (ZOETIS SERVICES, published 2022):
Changes are numbered by the printed parent chain. Where two headings read alike, the source gives them in different places.

What was measured:
TGFβ3 (R&D Systems) [1] = biological target: T1, TGFβ3 (R&D Systems) (Homo sapiens (Human), UniProt P10600 301-412, Active TGFβ3 is a disulfide-linked homodimer of this chain; one copy is given.); assay: SPR
T1 construct: also called TGFB3
T1 sequence: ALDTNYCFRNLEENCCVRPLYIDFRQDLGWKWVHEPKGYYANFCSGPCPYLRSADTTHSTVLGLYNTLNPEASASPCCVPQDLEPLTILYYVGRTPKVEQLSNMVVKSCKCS

TGFβ1 (R&D Systems) [2] = biological target: T2, TGFβ1 (R&D Systems); assay: SPR full titration
T2 construct: also called TGFB1
T2 sequence (P01137 279-390): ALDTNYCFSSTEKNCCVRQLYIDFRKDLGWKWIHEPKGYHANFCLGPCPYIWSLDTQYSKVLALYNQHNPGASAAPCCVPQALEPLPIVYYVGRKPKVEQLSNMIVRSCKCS

TGFβ3 (R&D Systems) [3] = biological target: T1, TGFβ3 (R&D Systems); assay: SPR full titration
TGFβ2 (R&D Systems) = biological target: T3, TGFβ2 (R&D Systems); assay: SPR full titration
T3 construct: also called TGFB2
T3 sequence (P61812 303-414, species assumed, looked up): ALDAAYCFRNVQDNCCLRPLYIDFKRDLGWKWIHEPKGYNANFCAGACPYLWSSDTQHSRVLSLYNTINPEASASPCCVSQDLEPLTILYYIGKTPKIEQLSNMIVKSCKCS

TGFβ1 (R&D Systems) [4] = biological target: T2, TGFβ1 (R&D Systems); assay: SPR full titration; remark: listed apart in the source
canine TGFβ2 [5] = biological target: T4, canine TGFβ2 (canine, UniProt A0A8I3PZZ6 331-442); assay: SPR, TGFβ on chip
T4 sequence: T3 sequence (P61812 303-414, species assumed, looked up)
Description: (§1) To avoid affinity differences associated with differential surface preparation that can occur when immobilizing antibodies to surfaces, TGFβ1, TGFβ2, and TGFβ3 (R&D Systems) were directly conjugated to the individual surface. Immobilization was obtained by amine coupling […] using N-hydroxysuccinimide (NHS)/1-Ethyl-3-(3-dimethylaminopropyl) carbodiimide (EDC) chemistry. Chips were quenched with ethanolamine and the affinity with which all candidate mAbs bound to the immobilized TGFβ was evaluated. All curves were fit to a 1:1 model. Affinities <10⁻¹¹ are below the lower limit of quantitation of detection for the instrument.

canine TGFβ3 [6] = biological target: T5, canine TGFβ3 (canine, UniProt A0A8I3S1P1 346-457); assay: SPR, TGFβ on chip
T5 sequence: T1 sequence
Description: as §1

canine TGFβ1 = canine TGFβ1 (canine, UniProt P54831 279-390, limits assumed); assay: SPR, TGFβ on chip
Chain of canine TGFβ1 (P54831 279-390 limits assumed): as the sequence (P01137 279-390) above
Description: as §1

TGFβ3 (R&D Systems) [7] = biological target: T1, TGFβ3 (R&D Systems); assay: cell-based or functional assay
TGFβ1 (R&D Systems) [8] = biological target: T2, TGFβ1 (R&D Systems); assay: cell-based or functional assay
canine TGFβ2 [9] = biological target: T4, canine TGFβ2; assay: SPR
canine TGFβ3 [10] = biological target: T5, canine TGFβ3; assay: SPR
TGFβ3 (R&D Systems) [11] = biological target: T1, TGFβ3 (R&D Systems); assay: cell-based or functional assay; remark: listed apart in the source
TGFβ1 (R&D Systems) [12] = biological target: T2, TGFβ1 (R&D Systems); assay: cell-based or functional assay; remark: listed apart in the source

B1: felHclb_heterochimera-11 (antibody, V domains shown)
VH: QVLLVQSGAEVRRPGASVKIFCKASGYIFITYYMHWLRQAPAQGFEWMGSIFPASGSTSYAQKFQGRLTLTADTSTDTAYMELSSLRSADTAVYYCARGDGNYALDAMDYWGHGTIVTVSS
VL: DIVLTQTPASLAVSLGQRATISCRASESVDSYGNSFMHWYQQKSGQPPKLLIYLASNLESGVPARFSGSGSRTDFTLTIDPVEADDAATYYCQQNNEDPLTFGAGTK
notes: hetero-pairing; also called felHclbH636/mHclbVL
binding result (TGFβ3 (R&D Systems) [1]): no binding

B2: mouse SL501 (antibody, V domains shown)
VH: EVQLVESGGGVVQPGRSLRLSCAASGFTFSSYGMHWVRQAPGKELEWVAVISYDGSIKYYADSVKGRFTISRDNSKNTLYLQMNSLRAEDTAVYYCARTGEYSGYDTDPQYSWGQGTTVTVSS
VL: EIVLTQSPSSLSASVGDRVTITCRASQGIGDDLGWYQQKPGKAPILLIYGTSTLQSGVPSRFSGSGSGTDFTLTINSLQPEDFATYYCLQDSNYPLTFGGGTK
notes: called engineered mouse antibody and also precursor human antibody from phage display; also called mouse-SL501-VH/mouse-SL501-VL; SL501 (murine)
Kd (TGFβ1 (R&D Systems) [2]): 0.00705 nM

B3: Can-SL501_VH2/Chimera-SL501-VL (antibody, V domains shown)
VH: EVQLVESGGDLVKPGGSLRLSCVASGFTFSSYGMHWVRQAPGKGLQWVAVISYDGSIKYYADAVKGRFTISRDNAKNTLYLQMNSLRAEDTAMYYCAKTGEYSGYDTDPQYSWGQGTLVTVSS
VL: B2 VL
notes: also called heterochimeric SL501
Kd (TGFβ1 (R&D Systems) [2]): 1090 nM

B4: Can-SL501_VH1/CanSL501-VL-hybrid (antibody, V domains shown)
VH: B3 VH with A61T, K76R, L79V, M93V
VL: B2 VL with K42Q, I45K, T72S, L73F, N76S, Q79E, F83V, T85V
notes: constant regions not restated
Kd (TGFβ1 (R&D Systems) [2]): 4.01 nM

B5: Chimera-SL501-VH/CanSL501-VL-hybrid (antibody, V domains shown)
VH: B2 VH
VL: B2 VL with K42Q, I45K, T72S, L73F, N76S, Q79E, F83V, T85V
notes: constant regions not restated
Kd (TGFβ1 (R&D Systems) [2]): 0.0428 nM

B6: Chimera-SL501-VH/Can-SL501-VL1 (antibody, V domains shown)
VH: B2 VH
VL: EIVMTQSPASLSLSQEEKVTITCRASQGIGDDLGWYQQKPGQAPKLLIYGTSTLQSGVPSRFSGSGSGTDFSFTISSLEPEDVAVYYCLQDSNYPLTFGAGTK
notes: as for B3
Kd (TGFβ1 (R&D Systems) [2]): 60.8 nM

B7: Chimera-SL501-VH/Can-SL501-VL2 (antibody, V domains shown)
VH: B2 VH
VL: EIVMTQSPGSLAGSAGESVSINCRASQGIGDDLGWYQQKPGERPKLLIYGTSTLQSGVPARFSSSGSGTDFTLTINNLQAEDVGDYYCLQDSNYPLTFGAGTK
notes: as for B3
Kd (TGFβ1 (R&D Systems) [2]): 0.000192 nM

B8: Can-SL501-VH1/Chimera-SL501-VL (antibody, V domains shown)
VH: B3 VH with A61T, K76R, L79V, M93V
VL: B2 VL
notes: as for B3
Kd (TGFβ1 (R&D Systems) [2]): 1100 nM

B9: H1chimK (antibody)
heavy: EVQLVQSGAEVKKPGASVKVSCKTSGYTFITYWMNWVRQAPGAGLDWMGQIFPASGSTNYNEMFEGRVTLTADTSTSTAYMELSSLRAGDIAVYYCARGDGNYALDAMDYWGQGTLVTASTTAPSVFPLAPSCGSTSGSTVALACLVSGYFPEPVTVSWNSGSLTSGVHTFPSVLQSSGLYSLSSMVTVPSSRWPSETFTCNVAHPASKTKVDKPVPKRENGRVPRPPDCPKCPAPEAAGAPSVFIFPPKPKDTLLIARTPEVTCVVVDLDPEDPEVQISWFVDGKQMQTAKTQPREEQFNGTYRVVSVLPIGHQDWLKGKQFTCKVNNKALPSPIERTISKARGQAHQPSVYVLPPSREELSKNTVSLTCLIKDFFPPDIDVEWQSNGQQEPESKYRTTPPQLDEDGSYFLYSKLSVDKSRWQRGDTFICAVMHEALHNHYTQESLSHSPGK
light: DIVLTQTPASLAVSLGQRATISCRASESVDSYGNSFMHWYQQKSGQPPKLLIYLASNLESGVPARFSGSGSRTDFTLTIDPVEADDAATYYCQQNNEDPLTFGAGTKRNDAQPAVYLFQPSPDQLHTGSASVVCLLNSFYPKDINVKWKVDGVIQDTGIQESVTEQDKDSTYSLSSTLTMSSTEYLSHELYSCEITHKSLPSTLIKSFQRSEC
notes: also called canHcLb-VH1/chiHcLb-VL
Kd (TGFβ3 (R&D Systems) [3]): 1.03 nM | Kd (TGFβ2 (R&D Systems)): 0.683 nM | Kd (TGFβ1 (R&D Systems) [4]): 6.52 nM

B10: H2chimK (antibody)
heavy: B9 heavy with G8A, T28S, I30T, R38Q, A43K, A72V, G89E, I91A
light: B9 light
notes: also called canHcLb-VH2/chiHcLb-VL
Kd (TGFβ3 (R&D Systems) [3]): 2.26 nM | Kd (TGFβ2 (R&D Systems)): 6.62 nM | Kd (TGFβ1 (R&D Systems) [4]): 16.3 nM

B11: Can04H09 VH3/VL4 (antibody, V domains shown)
VH: EVQLVQSAAEVKKPGASVKVSCKTSGYTFTSSWMNWVQQAPGAGLDWMGQIYPGDGDTNYNGKFKGRVTLTADTSTSTAYMELSSLRAEDTAVYYCARHYDGSTDYWGQGTLVTVSS
VL: EIVMTQSPASLSLSQGEKVTITCRASENIYSNLAWYQQRPGQAPKLLIYAATNLADGVPSRFSGSGSGTDFSLTISSLEPEDVAVYYCQHFWGTPYTFGQGTK
Kd (canine TGFβ2 [5]): 32.1 nM | Kd (canine TGFβ3 [6]): 6.06 nM | Kd (canine TGFβ1): 1.38 nM | CMVIC pSmad-3, IC50 (TGFβ3 (R&D Systems) [7]): 52.8 nM | CMVIC pSmad-3, IC50 (TGFβ1 (R&D Systems) [8]): 0.74 nM

B12: Can04H09 VH3/VL1 (antibody, V domains shown)
VH: B11 VH
VL: DIVMTQNPLSLSVSPGETASISCRASENIYSNLAWFRQKPGQSPQRLIYAATNLADGVPDRFSGSGSGTDFTLRISRVEADDTGVYYCQHFWGTPYTFGQGTK
Kd (canine TGFβ1): 3980 nM | binding result (canine TGFβ2 [9]): no binding | binding result (canine TGFβ3 [10]): no binding

B13: Can04H09 VH3/VL3 (antibody, V domains shown)
VH: B11 VH
VL: B11 VL with G16E, R39K, L73F
Kd (canine TGFβ2 [5]): 48.8 nM | Kd (canine TGFβ3 [6]): 9.08 nM | Kd (canine TGFβ1): 2.79 nM | CMVIC pSmad-3, IC50 (TGFβ3 (R&D Systems) [7]): 72.8 nM | CMVIC pSmad-3, IC50 (TGFβ1 (R&D Systems) [8]): 1.18 nM

B14: Can04H09 VH1/VL1 (antibody, V domains shown)
VH: B11 VH with A8G, T30I, Q38R, E89G, T91I
VL: B12 VL
Kd (canine TGFβ1): 284 nM | binding result (canine TGFβ2 [9]): no binding | binding result (canine TGFβ3 [10]): no binding

B15: Can04H09 VH2/VL1 (antibody, V domains shown)
VH: B11 VH with T28S, A43K, T74K, A88S, T91A
VL: B12 VL
Kd (canine TGFβ1): 2190 nM | binding result (canine TGFβ2 [9]): no binding | binding result (canine TGFβ3 [10]): no binding

B16: Can04H09 VH2/VL4 (antibody, V domains shown)
VH: B11 VH with T28S, A43K, T74K, A88S, T91A
VL: B11 VL
Kd (canine TGFβ2 [5]): 32.9 nM | Kd (canine TGFβ3 [6]): 6.03 nM | Kd (canine TGFβ1): 1.42 nM | CMVIC pSmad-3, IC50 (TGFβ3 (R&D Systems) [7]): 69.5 nM | CMVIC pSmad-3, IC50 (TGFβ1 (R&D Systems) [8]): 0.84 nM

B17: Can04H09 VH1/VL3 (antibody, V domains shown)
VH: B11 VH with A8G, T30I, Q38R, E89G, T91I
VL: B11 VL with G16E, R39K, L73F
Kd (canine TGFβ2 [5]): 32 nM | Kd (canine TGFβ3 [6]): 6.52 nM | Kd (canine TGFβ1): 2.43 nM | CMVIC pSmad-3, IC50 (TGFβ3 (R&D Systems) [7]): 467 nM | CMVIC pSmad-3, IC50 (TGFβ1 (R&D Systems) [8]): 0.66 nM

B18: fel04H09-17 (antibody, V domains shown)
VH: QVLLVQSGAEVRRPGASVKIFCKASGYSFTSSWMNWLRQAPAQGFEWMGQIYPGDGDTNYNGKFKGRLTLTADTSTDTAYMELSSLRSADTAVYYCARHYDGSTDYWGHGTIVTVSS
VL: AITMTQSPGSLAGSPGQQVTMNCRASENIYSNLAWYQQKPGQHPKLLIYAATNLADGVPDRFSGSGSGTDFTLTISNLQAEDVASYYCQHFWGTPYTFGGGT
CMVIC pSmad-3, IC50 (TGFβ3 (R&D Systems) [11]): 39.9 nM | CRFK pSmad-3, IC50 (TGFβ3 (R&D Systems) [11]): 370 nM | CMVIC pSmad-3, IC50 (TGFβ1 (R&D Systems) [12]): 0.89 nM | CRFK pSmad-3, IC50 (TGFβ1 (R&D Systems) [12]): 0.73 nM

B19: fel04H09-24 (antibody, V domains shown)
VH: B18 VH with R13K, A42E, F45L, D77N, V93M, H109Q, T111A, I112L
VL: DIVMTQTPLSLPVTPGEPASISCRASENIYSNLAWYLQKPGQSPRLLIYAATNLADGVPSRFSGSGSGTDFTLRISSVEADDVGVYYCQHFWGTPYTFGQGT
CRFK pSmad-3, IC50 (TGFβ3 (R&D Systems) [11]): 30.1 nM | CRFK pSmad-3, IC50 (TGFβ1 (R&D Systems) [12]): 0.5 nM
